# Data published in publication PMC9482650, “Quantitative fragmentomics allow affinity mapping of interactomes” (Nature Communications, 2022).
# Experiments:
# Test in all cases: holdup assay
# Parameters in all cases: key: below the threshold = too weak to quantify, mostly under pKd 3.1 to 4
# [1] = biological target: T1, APBA1_2, Q02410
# T1 sequence (Q02410 742-832, limits assumed, looked up): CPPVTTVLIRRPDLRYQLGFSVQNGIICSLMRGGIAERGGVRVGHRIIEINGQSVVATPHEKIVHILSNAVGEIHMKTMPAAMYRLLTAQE
# [2] = biological target: T2, PDZD7_3, Q9H5P4
# T2 sequence (Q9H5P4 857-944, limits assumed, looked up): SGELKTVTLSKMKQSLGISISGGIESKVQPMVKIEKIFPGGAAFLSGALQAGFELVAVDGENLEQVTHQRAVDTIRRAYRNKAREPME
# [3] = biological target: T3, DLG3_2, Q92796
# T3 sequence (Q92796 221-321, limits assumed, looked up): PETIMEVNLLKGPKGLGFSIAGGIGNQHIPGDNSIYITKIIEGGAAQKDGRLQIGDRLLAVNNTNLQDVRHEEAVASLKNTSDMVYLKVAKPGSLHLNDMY
# [4] = biological target: FRMPD2_3, Q68DX3
# Sequence of FRMPD2_3, Q68DX3 (Q68DX3 1073-1166): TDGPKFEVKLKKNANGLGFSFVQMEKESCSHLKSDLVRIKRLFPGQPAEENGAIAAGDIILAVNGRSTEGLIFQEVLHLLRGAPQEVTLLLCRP
# [5] = biological target: NHERF2_2, Q15599
# Sequence of NHERF2_2, Q15599 (Q15599 142-238): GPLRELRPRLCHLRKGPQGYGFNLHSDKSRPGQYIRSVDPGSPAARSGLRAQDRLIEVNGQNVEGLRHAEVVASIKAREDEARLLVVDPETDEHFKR
# [6] = biological target: T4, GRIP1_4, Q9Y3R0
# T4 sequence (Q9Y3R0 467-571, limits assumed, looked up): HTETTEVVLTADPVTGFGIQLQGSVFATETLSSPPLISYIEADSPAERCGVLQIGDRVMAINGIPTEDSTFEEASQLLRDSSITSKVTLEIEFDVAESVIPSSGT
# [7] = biological target: LAP2, Q96RT1
# Sequence of LAP2, Q96RT1 (Q96RT1 other isoform, or with tags, fused parts or gaps): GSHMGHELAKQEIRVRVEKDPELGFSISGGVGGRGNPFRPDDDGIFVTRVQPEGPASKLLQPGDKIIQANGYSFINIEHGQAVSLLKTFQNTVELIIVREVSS
# [8] = biological target: T5, PTPN13_1, Q12923
# T5 sequence (Q12923 1088-1188, limits assumed, looked up): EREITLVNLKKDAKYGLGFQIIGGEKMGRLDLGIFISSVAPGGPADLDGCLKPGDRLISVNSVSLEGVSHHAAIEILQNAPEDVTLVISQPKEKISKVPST
# [9] = biological target: TJP1_2, Q07157
# Sequence of TJP1_2, Q07157 (Q07157 181-274): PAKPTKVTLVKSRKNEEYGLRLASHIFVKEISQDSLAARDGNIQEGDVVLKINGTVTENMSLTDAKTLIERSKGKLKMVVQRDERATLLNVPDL
# [10] = biological target: CASK, O14936
# Sequence of CASK, O14936 (O14936 487-570): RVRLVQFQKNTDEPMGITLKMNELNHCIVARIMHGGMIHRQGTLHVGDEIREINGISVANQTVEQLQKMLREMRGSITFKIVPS
# [11] = biological target: Inadl_4, Q8NI35
# Sequence of Inadl_4, Q8NI35 (Q8NI35 547-651): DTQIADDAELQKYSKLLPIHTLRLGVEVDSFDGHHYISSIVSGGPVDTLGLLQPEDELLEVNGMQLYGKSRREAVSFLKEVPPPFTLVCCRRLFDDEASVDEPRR
# [12] = biological target: T6, APBA3_1, O96018
# T6 sequence (O96018 389-490, limits assumed, looked up): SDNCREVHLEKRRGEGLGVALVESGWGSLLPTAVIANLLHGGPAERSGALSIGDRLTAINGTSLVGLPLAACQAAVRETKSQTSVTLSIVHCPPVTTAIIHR
# [13] = biological target: T7, MPDZ_12, O75970
# T7 sequence (O75970 1857-1958, limits assumed, looked up): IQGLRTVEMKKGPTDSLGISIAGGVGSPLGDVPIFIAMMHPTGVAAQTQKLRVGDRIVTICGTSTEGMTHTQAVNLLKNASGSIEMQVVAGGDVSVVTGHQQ
# [14] = biological target: T8, MPP6, Q9NZW5
# T8 sequence (Q9NZW5 125-219, limits assumed, looked up): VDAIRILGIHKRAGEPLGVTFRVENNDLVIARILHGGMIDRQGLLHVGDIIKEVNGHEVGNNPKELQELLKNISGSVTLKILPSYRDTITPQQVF
# [15] = biological target: T9, SHANK1, Q9Y566
# T9 sequence (Q9Y566 658-767, limits assumed, looked up): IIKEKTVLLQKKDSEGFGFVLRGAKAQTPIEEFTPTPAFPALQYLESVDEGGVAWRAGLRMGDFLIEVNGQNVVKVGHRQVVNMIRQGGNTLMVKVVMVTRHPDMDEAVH
# [16] = biological target: DLG1_2, Q12959
# Sequence of DLG1_2, Q12959 (Q12959 314-412): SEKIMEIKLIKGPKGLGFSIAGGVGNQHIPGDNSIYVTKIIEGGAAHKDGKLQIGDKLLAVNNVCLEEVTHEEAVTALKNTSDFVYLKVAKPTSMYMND
# [17] = biological target: T10, PARD3B_1, Q8TEW8
# T10 sequence (Q8TEW8 196-299, limits assumed, looked up): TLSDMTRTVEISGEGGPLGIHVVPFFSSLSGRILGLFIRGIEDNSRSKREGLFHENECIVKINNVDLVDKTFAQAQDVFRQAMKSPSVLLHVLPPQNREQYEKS
# [18] = biological target: T11, DFNB31_1, Q9P202
# T11 sequence (Q9P202 135-233, limits assumed, looked up): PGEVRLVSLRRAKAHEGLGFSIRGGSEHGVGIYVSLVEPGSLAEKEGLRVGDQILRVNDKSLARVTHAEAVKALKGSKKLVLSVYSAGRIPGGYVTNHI
# [19] = biological target: T12, GRIP1_3, Q9Y3R0
# T12 sequence (Q9Y3R0 247-346, limits assumed, looked up): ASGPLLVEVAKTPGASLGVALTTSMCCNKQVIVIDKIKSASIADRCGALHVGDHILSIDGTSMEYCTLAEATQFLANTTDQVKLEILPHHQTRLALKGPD
# [20] = biological target: T13, PCLO, Q9Y6V0
# T13 sequence (Q9Y6V0 4491-4600, limits assumed, looked up): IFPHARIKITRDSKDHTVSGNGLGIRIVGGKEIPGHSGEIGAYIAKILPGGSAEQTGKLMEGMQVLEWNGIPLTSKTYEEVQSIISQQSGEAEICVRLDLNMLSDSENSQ
# [21] = biological target: MAGI2_4, Q86UL8
# Sequence of MAGI2_4, Q86UL8 (Q86UL8 772-865): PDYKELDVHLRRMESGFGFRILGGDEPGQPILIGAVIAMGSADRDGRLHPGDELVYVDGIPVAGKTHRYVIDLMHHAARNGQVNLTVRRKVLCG
# [22] = biological target: Inadl_6, Q8NI35
# Sequence of Inadl_6, Q8NI35 (Q8NI35 1058-1167): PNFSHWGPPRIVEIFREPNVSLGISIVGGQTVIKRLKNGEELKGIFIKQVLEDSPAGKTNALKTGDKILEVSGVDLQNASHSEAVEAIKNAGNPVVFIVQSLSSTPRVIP
# [23] = biological target: GIPC2, Q8TF65
# Sequence of GIPC2, Q8TF65 (Q8TF65 112-203): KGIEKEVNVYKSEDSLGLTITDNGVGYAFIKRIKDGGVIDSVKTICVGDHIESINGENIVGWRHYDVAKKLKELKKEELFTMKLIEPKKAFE
# [24] = biological target: FRMPD2_2, Q68DX3
# Sequence of FRMPD2_2, Q68DX3 (Q68DX3 944-1038): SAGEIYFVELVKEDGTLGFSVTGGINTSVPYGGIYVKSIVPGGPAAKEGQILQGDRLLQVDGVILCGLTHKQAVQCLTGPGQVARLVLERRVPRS
# [25] = plain residues with an end cap or a label only (N-terminal biotin on a linker: ttds)
# [26] = plain residues with an end cap or a label only (N-terminal biotin on a linker: ado-ado)
# [27] = plain residues with an end cap or a label only (N-terminal biotin on a linker: ahx)
binder,measurement,setting,value
"DPLTPSRSQL [DGKK, Q5KSL6]",pKd,[1]; [25],3.71
same,pKd,[2]; [25],below the threshold
same,pKd,[3]; [25],below the threshold
same,pKd,[4]; [25],below the threshold
same,pKd,[5]; [25],below the threshold
same,pKd,[6]; [25],below the threshold
same,pKd,[7]; [25],below the threshold
same,pKd,[8]; [25],below the threshold
same,pKd,[9]; [25],below the threshold
same,pKd,[10]; [25],below the threshold
same,pKd,[11]; [25],below the threshold
same,pKd,[12]; [25],below the threshold
same,pKd,[13]; [25],below the threshold
same,pKd,[14]; [25],below the threshold
same,pKd,[15]; [25],4.11
same,pKd,[16]; [25],below the threshold
same,pKd,[17]; [25],below the threshold
same,pKd,[18]; [25],below the threshold
same,pKd,[19]; [25],below the threshold
same,pKd,[20]; [25],below the threshold
same,pKd,[21]; [25],below the threshold
same,pKd,[22]; [25],below the threshold
same,pKd,[23]; [25],below the threshold
same,pKd,[24]; [25],below the threshold
"QKNKDKEYYV [NRXN3_rs746444206, Q9Y4C0]",pKd,[1]; [26],4.02
same,pKd,[2]; [26],below the threshold
same,pKd,[3]; [26],below the threshold
same,pKd,[4]; [26],4.23
same,pKd,[5]; [26],below the threshold
same,pKd,[6]; [26],below the threshold
same,pKd,[7]; [26],below the threshold
same,pKd,[8]; [26],below the threshold
same,pKd,[9]; [26],below the threshold
same,pKd,[10]; [26],3.55
same,pKd,[11]; [26],below the threshold
same,pKd,[12]; [26],below the threshold
same,pKd,[13]; [26],below the threshold
same,pKd,[14]; [26],4.43
same,pKd,[15]; [26],below the threshold
same,pKd,[16]; [26],below the threshold
same,pKd,[17]; [26],3.84
same,pKd,[18]; [26],below the threshold
same,pKd,[19]; [26],below the threshold
same,pKd,[20]; [26],below the threshold
same,pKd,[21]; [26],3.54
same,pKd,[22]; [26],below the threshold
same,pKd,[23]; [26],below the threshold
same,pKd,[24]; [26],3.62
"RNCSTNDSLL [ADRB2, P07550]",pKd,[1]; [27],below the threshold
same,pKd,[2]; [27],3.57
same,pKd,[3]; [27],below the threshold
same,pKd,[4]; [27],below the threshold
same,pKd,[5]; [27],3.7
same,pKd,[6]; [27],below the threshold
same,pKd,[7]; [27],below the threshold
same,pKd,[8]; [27],below the threshold
same,pKd,[9]; [27],below the threshold
same,pKd,[10]; [27],below the threshold
same,pKd,[11]; [27],below the threshold
same,pKd,[12]; [27],below the threshold
same,pKd,[13]; [27],below the threshold
same,pKd,[14]; [27],below the threshold
same,pKd,[15]; [27],below the threshold
same,pKd,[16]; [27],below the threshold
same,pKd,[17]; [27],3.75
same,pKd,[18]; [27],below the threshold
same,pKd,[19]; [27],below the threshold
same,pKd,[20]; [27],below the threshold
same,pKd,[21]; [27],3.55
same,pKd,[22]; [27],below the threshold
same,pKd,[23]; [27],below the threshold
same,pKd,[24]; [27],below the threshold
"HSGSYLVTSV [APC, P25054]",pKd,[1]; [27],4.03
same,pKd,[2]; [27],5.11
same,pKd,[3]; [27],5.07
same,pKd,[4]; [27],below the threshold
same,pKd,[5]; [27],below the threshold
same,pKd,[6]; [27],below the threshold
same,pKd,[7]; [27],4.87
same,pKd,[8]; [27],below the threshold
same,pKd,[9]; [27],below the threshold
same,pKd,[10]; [27],below the threshold
same,pKd,[11]; [27],below the threshold
same,pKd,[12]; [27],below the threshold
same,pKd,[13]; [27],3.63
same,pKd,[14]; [27],below the threshold
same,pKd,[15]; [27],4.1
same,pKd,[16]; [27],5.21
same,pKd,[17]; [27],below the threshold
same,pKd,[18]; [27],3.93
same,pKd,[19]; [27],below the threshold
same,pKd,[20]; [27],below the threshold
same,pKd,[21]; [27],4.17
same,pKd,[22]; [27],3.81
same,pKd,[23]; [27],below the threshold
same,pKd,[24]; [27],4.61
"RGGFGRQTQI [NCBP2L, A6PVI3]",pKd,[1]; [26],below the threshold
same,pKd,[2]; [26],4.38
same,pKd,[3]; [26],4.68
same,pKd,[4]; [26],below the threshold
same,pKd,[5]; [26],below the threshold
same,pKd,[6]; [26],below the threshold
same,pKd,[7]; [26],below the threshold
same,pKd,[8]; [26],3.71
same,pKd,[9]; [26],below the threshold
same,pKd,[10]; [26],below the threshold
same,pKd,[11]; [26],below the threshold
same,pKd,[12]; [26],below the threshold
same,pKd,[13]; [26],3.76
same,pKd,[14]; [26],below the threshold
same,pKd,[15]; [26],below the threshold
same,pKd,[16]; [26],4.92
same,pKd,[17]; [26],below the threshold
same,pKd,[18]; [26],4.78
same,pKd,[19]; [26],below the threshold
same,pKd,[20]; [26],below the threshold
same,pKd,[21]; [26],below the threshold
same,pKd,[22]; [26],below the threshold
same,pKd,[23]; [26],below the threshold
same,pKd,[24]; [26],below the threshold
"TGDTLEKFVEGL [CBP, Q92793]",pKd,[1]; [25],below the threshold
same,pKd,[2]; [25],below the threshold
same,pKd,[3]; [25],below the threshold
same,pKd,[4]; [25],below the threshold
same,pKd,[5]; [25],below the threshold
same,pKd,[6]; [25],below the threshold
same,pKd,[7]; [25],below the threshold
same,pKd,[8]; [25],below the threshold
same,pKd,[9]; [25],below the threshold
same,pKd,[10]; [25],below the threshold
same,pKd,[11]; [25],below the threshold
same,pKd,[12]; [25],below the threshold
same,pKd,[13]; [25],below the threshold
same,pKd,[14]; [25],below the threshold
same,pKd,[15]; [25],below the threshold
same,pKd,[16]; [25],below the threshold
same,pKd,[17]; [25],below the threshold
same,pKd,[18]; [25],below the threshold
same,pKd,[19]; [25],below the threshold
same,pKd,[20]; [25],below the threshold
same,pKd,[21]; [25],below the threshold
same,pKd,[22]; [25],below the threshold
same,pKd,[23]; [25],below the threshold
same,pKd,[24]; [25],below the threshold
